Kd data for 1 molecule are collected here from publication PMC4552821 (2015).

Where two headings read alike, the source gives them in different places.

For assay [1], the target named is T1, kerateine (reduced hair keratin extract) (Homo sapiens, UniProt Q15323). The assay can be described thus: SPR. (In SPR one partner is held on a chip, and binding of the other changes the refractive index at the surface.)
For assay [2], the target named is T1, kerateine (reduced hair keratin extract). The assay is described as follows: SPR. This is another data set of the same source.

B1: BMP-2 (protein)
chain: QAKHKQRKRLKSSCKRHPLYVDFSDVGWNDWIVAPPGYHAFYCHGECPFPLADHLNSTNHAIVQTLVNSVNSKIPKACCVPTELSAISMLYLDENEKVVLKNYQDMVVEGCGCR
Consider B1, for which the figures for the Kd in assay [1] and in assay [2] were 32 µM and 0.11 µM, respectively.
